# Experimental data published in PMC3683042, “Solution Structure and Peptide Binding of the PTB Domain from the AIDA1 Postsynaptic Signaling Scaffolding Protein” (PLoS ONE, 2013).
# B1: wild type: PTB domain (aa. 1043–1195) of human AIDA1b, amino terminal 6xHis tag and intervening thrombin site (protein, UniProt Q7Z6G8 1043-1195, looked up, fragment)
# chain: TPVQYWQHHPEKLIFQSCDYKAFYLGSMLIKELRGTESTQDACAKMRANCQKSTEQMKKVPTIILSVSYKGVKFIDATNKNIIAEHEIRNISCAAQDPEDLSTFAYITKDLKSNHHYCHVFTAFDVNLAYEIILTLGQAFEVAYQLALQARKG
# modifications: PTB domain His tag, thrombin site
# notes: PTB domain (aa. 1043–1195) of human AIDA1b, amino terminal 6xHis tag and intervening thrombin site
# Tests used:
# [1] = Thermal denaturation midpoint (Tm) by CD spectroscopy; assay type: physicochemical; details: far UV CD, ellipticity at 222 nm, 50 µM protein, heating 20–90°C at 2°C/min
# Procedure: Far UV circular dichroism (CD) spectra were acquired with a Jasco J-810 instrument at a protein concentration of 50 µM using a rectangular cell with a 0.1 cm path length. Spectra were recorded from 260–200 nm with a scan rate of 50 nm/min and a 1.0 nm bandwidth. A midpoint denaturation temperature (Tm) was determined by heating samples from 20–90°C at 2°C/min and monitoring ellipticity at 222 nm.
# [2] = Solubility of the AIDA1 PTB domain and mutants
# Description: Since the objective of the aromatic-alanine substitutions was to improve solubility for a structure determination, ^15N-HSQC spectra were used qualitatively.
molecule,measurement,setting,value
B1,Tm,[1],62 °C
same,solubility (in words),[2],poor solubility
same,"soluble concentration, at least one day at room temperature",[2],0.15 mM
same,Solubility,"[2]; concentrated until increased resonance line broadening or apparent turbidity, 15N-HSQC NMR read-out, 20 mM Na-phosphate, pH 7.8, […] NaCl, 0.05% (w/v) NaN3",100 µM
